In US20220256794A1, “TERPENE SYNTHASES AND TRANSPORTERS” (The State of Israel, Ministry of Agriculture & Rural …, priority 2019, published 2022):

Experiments:
yeast cells [1] = experiment: Yeast growth (turbidity A600) in the presence of CBD; format: cell-based, Saccharomyces cerevisiae (strain Y1HGold); conditions: 0.5 mM CBD; for inhibition of yeast growth in response to CBD, transporter-expressing yeast vs control yeast: 7-12 hours
Method: (§1) The genes were expressed in yeast and tobacco. For yeast, the ABC and PTR Transporter genes were synthesized by the TWIST Co, cloned and expressed (individually) in the yeast expression vector pESC-URA (Agilent Technologies) for expression under the yeast native gal-10 promoter. Competent Saccharomyces cerevisiae (strain Y1HGold, CloneTech) cells were prepared, transformed by each of the resulting vector and selected on yeast synthetic media lacking Uracil as previously described [GietzR. D., Methods Mol. Biol. (2014) 1205:1-12].
An alternative method is to measure the yeast growth as a function of turbidity. Transformed yeast cells were grown on URA-glucose broth at 30° C. at 200 RPM, and after 24 hours 100 μl was used to inoculate 5 ml of URA-galactose broth in the same conditions till O.D.600 of 1.5. The yeast was further diluted to OD600=0.05 with 10 ml URA-galactose, and divided into two 5 ml aliquots into separate 50 ml falcon tubes. The first falcon (control) was added 78 μl acetonitrile (the solvent that the CBD was dissolved in), and the second one was added 78 μl CBD solution in acetonitrile (final CBD concentration=0.5 mM). […]

tobacco BY-2 cells [2] = experiment: CBD-induced cell death of tobacco BY-2 cells (FDA fluorescence); format: cell-based; conditions: 0.5 mM CBD
From the text: (§2) For tobacco, the ABC and PTR Transporter genes were cloned into a plant binary expression vector (pGreen 0029) via Agrobacterium mediated transformation as previously described [Cohen, S. et at, Nat. Commun. (2014) 5:4026]. These genes were cloned between the cauliflower mosaic virus (CaMl,) 35S promoter and the polyadenylation signal from the nopaline synthase gene and inserted into tobacco BY2 cells and plants (var. Samson) via stable transformation..
The toxic effect and cell death activity of terpenes and cannabinoids in tobacco was assessed on cell cultures as follows: 7-day-old suspension cultured BY-2 tobacco cells at a 5-fold dilution in logarithmic growth phase, incubated in Gamborg B5 medium, was incubated in the presence of 0.5 mM CBD for 48 hours as previously described [Sirikantaramas S. et al., Plant Cell Physiol. (2005) 46:1578-1582].
Cell death in the samples was evaluated using the cell viability indicator fluorescein diacetate (FDA, Sigma-Aldrich). Cell suspension (2.5 mL) was stained with 50 μL of 0.5% fluorescein diacetate (FDA) dissolved in acetone for 10 min. The cells were rinsed three times with I mL isotonic medium to remove excess staining solution. Viability was assessed immediately using an Olympus BX50 fluorescence microscope equipped with a suitable barrier filter (excitation 460-490 nm and emission 510 nm). FDA staining of viable cells results in bright green fluorescence, while nonviable cells remain colorless.

yeast cells [3] = experiment: Uptake of CBD into yeast cells; format: cell-based, Saccharomyces cerevisiae (strain Y1HGold); conditions: 0.5 mM CBD; for net uptake of CBD into yeast cells compared to control (empty vector) yeast: three hour incubation, FIG. 3A and FIG. 4
Method: as §1
An additional strategy for determining transporter function is to measure the amount of exogenous CBD taken up and incorporated into the cells.
Transformed yeast cells were grown on URA-glucose broth at 30° C. at 200 RPM, and after 24 hours 100 μl was used to inoculate 5 ml of URA-galactose broth in the same conditions till OD600 of […]. The yeast was incubated with 0.5 mM CBD for 2-8 hours in 30° C. at 100 RPM, then centrifuged at 15000 g for 1 minute, and washed twice with 1 ml distilled water. The pellet was weighed and underwent HPLC analysis to determine the pellet's CBD content. The pellet was extracted in 1 ml methanol, and following centrifugation and filter was analyzed by HPLC using a diode-array detector and CBD was quantified against a commercial standard.

tobacco BY-2 cells [4] = experiment: Uptake of CBD into tobacco BY-2 cells; format: cell-based; conditions: 0.5 mM CBD
From the text: as §2
[…] The pellet was weighed and underwent HPLC analysis to determine the pellet CBD content, as indicated above.

For `C=C(C)[C@@H]1CCC(C)=C[C@H]1c1c(O)cc(CCCCC)cc1O` [CBD, Cannabidiol, reference compound], the “growth with CBD as % of growth without CBD” value (yeast cells [1]; control (empty vector) yeast, 7-12 hours after initiation, FIG. 2) was 42% and the “fluorescence (FDA viability) of control BY2 cells in the presence of CBD” value (tobacco BY-2 cells [2]; control BY2 cells, FIG. 6A top) was “small decrease”.

B1: T-790-1: Cannabis ABC-B transporter gene product, amino acid SEQ ID NO: 46 (protein)
chain: MDNKTNKHRGGNGDGDDNEDQDQEDTKKNNNNNNSNKVSLLKLFSFADFYDYVLMGIGTIGAIIHGASVPIFFIFFGKLINVIGMAYLFPKEASHKVAKYSLDFVYLSIAILFSSWTEVACWMHTGERQAAKMRMAYLRAMLSQDISLFDTEASTGEVISAITSDIIVVQDALSEKVGNFLHYISRFVVGFIVGFARVWQISLVTLSIVPLIALAGGVYAYIATGLIARVRKSYVKAGEIAEEVIGNVRTVQAFAGEEKAVKMYTSALAHTYMYGRKAGLAKGLGLGFMHCTLFLSWSLLVWYVSIVVHKSIANGGESFTTMLNVVIAGLSLGQAALDISAFVRAKAAAYPIFAMIERNTASKSSAMSGRKLGKLEGHIQFNNVTFSYPSRPDVTIFNKLSLDIPSGKIVALVGGSGSGKSTVISLIERFYEPLSGEILLDGNNIKELDLKWMRQQIGLVNQEPALFATSIRENILYGKDEASLDEITRAAKLSEAISFINNLPERFETQVGERGIQLSGGQKQRIAISRAIVKNPSILLLDEATSALDAESEKSVQEALDRVMVGRTTVVVAHRLSTIRNADIIAVVQEGKIVETGCHDELISNPNSVYSSLVQLQEAAPLQRNSSLGRPPSIKFSRELSRTTTSFGASFRSDKDSISRVGADGGAVEPVKTTNVSAKRLYSMIGPDWLYGLCGTICAFIAGAQMPLFALGISHALVSYYMDWDTTKHEVKKISILFCCGAVVTVIVHGIEHLCFGTMGERLTLRVRERMFSAMLRNEIAWFDDTNNTSSMLSSRLESDATLLRTIVVDRSTILLQNVGLVVASFIIAFLLNWRITLVVLATYPLVISGHISEKLFMQGYGGNLSKAYLKANMLAGEAVSNIRTVAAFCAEQKVLDLYARELVEPSKRSFTRGQIAGIFYGISQFFIFSSYGLALWYGSVLMGKELSSFKSVMKSFMVLIVTALAMGETLALAPDLLKGNQMVASVFEVLDRKTEVSGDSGEELASVDGTIELRDIHFSYPSRPDVVIFKDFNLKVRSGKSMALVGQSGSGKSSVISIILRFYDPTSGKVLIDGKDMKKLKLKSLRKHIGLVQQEPALFATSIYENILYGKEGASESEVIEAAKLANAHSFISALPEGYSTKVGERGVQLSGGQRQRVAIARAVLKNPEILLLDEATSALDVESERVVQQALDRLMKNRTTIMVAHRLSTIKNADQISVIQDGKIIEQGTHSTLIDNTNGPYYKLINIQQQQQQQL
modifications: ABC+PTR Transporter amino acid sequence (of the 12 identified gene products)
With B1 the “inhibition of yeast growth in response to CBD, transporter-expressing yeast vs control yeast” value (from here on “inhibition of yeast growth … vs control yeast”) (yeast cells [1]; FIG. 2) was “reduced inhibition of growth”, the “net uptake of CBD into yeast cells compared to control (empty vector) yeast” value (yeast cells [3]) was “reduced net uptake of CBD” and the “effect on the uptake of CBD in tobacco BY-2 cells” value (tobacco BY-2 cells [4]; 5 hour uptake, FIG. 7) was “strong effect”.

B2: T-792-1: Cannabis ABC-G transporter gene product, amino acid SEQ ID NO: 47 (protein)
chain: MASVTPSTTIDQEHYHNKKVTISRTTSTTSSNNNTNHGNPRITVVEIETANNRNASYRSSIFGADHEVSLPVVEDHQGVFLTWQDLWVTVSSGKNSNRPILRGLTGYAKPGELLAIMGPSGCGKSTLLDALAGRLNANTRQSGDILINGNKQTLAYGTSAYVTQEDTLLTTLTVREAVHYSAQLQLPDSMSSAEKKERAEMTIREMGLTDAVNTRIGGSGLGTGSKGLSGGQKRRVSICIEILTRPKLLFLDEPTSGLDSAASYYVMSSIASLDIQSRRGGGAGGRRTVVASIHQPSSEVFQLFNTLCLLSAGKIVYFGPASAANEFFTMSGFPCPSLQNPSDHFLKTINKDFDKVQKDLEQGLPIRGRPTVEEAIETLVKSYKASENCQLVQQQVSQICNKKNKSVGLMEKKRSHAGFISQCGVLTRRSFKNMYRDLGYYWFRLVIYIGLAIGLGTIFCNIGHSDGSVEARASLIMYVASFLTFMTIGGFPSFVEDMKVFGRERLNGHYSVTSFVMGNTISAQPYLVLIALIPGALAYFPPGLRGGFEHFIYFVLVLYACMMLVESLMMIVAALVPNFLLGIITGAGIQGFMMLAGGFFRLPNDLPDPFWRYPVFYISFHRYAFQGLYKNEFKGLMFVDEILGKSHKISGDEILRNKYQVNMSYSKWVDFVLLLSMVFAYRVMFLLILKISENYKTISAAFAFGRRKPSTQVMENPTATPPHA
modifications: ABC+PTR Transporter amino acid sequence (of the 12 identified gene products)
B2 was tested, and the “inhibition of yeast growth … vs control yeast” value (yeast cells [1]; FIG. 2) was “reduced inhibition of growth” and the “CBD levels in yeast cells compared to the control” value (yeast cells [3]; 5 hour period, FIG. 3B) was “increase in CBD levels”.

B3: T-AG0100-1: Cannabis PTR/NRT transporter gene product, amino acid SEQ ID NO: 53 (protein)
chain: MNMEVMSRDFDQSGGGKRGGNRAAFFVYIMEGLESMAFISNSASLVIYFFSYMNYSLTKSSTMLTNLLGTATLLSLLGGFISDTYLTRFATTLIFASIELMGYIVLLVQAHRSDLRPPKCLSITHQCEGASAGEAAILYTGLYLMALGTGGVKAALPALGADQFDPKKAKQLSTYFNWFIFSLTIGSILGVTLVVWISTDKGWDWAFAVCAIALLLSIFFISLGNPFYRNNLPKGSPLLRFLRVFVASFRNRKLPIPENADELHEIYQDKEDDNLHHEILQRTDQFKFLDRAAVIRRTEDDDNDGSNSGSEWRVCTVTEVEETKILIRMLPIILTTIFMNTCLAQLQTFSVQQSVTMDRDFIGFEIPGPSVPAIPLLFMFILIPLYDRVFVPIARRVTGIPTGISHLQRIGIGLVLSAISMTVAGFVEKKRRNVAIQHDMVDSQDALPISVFWLGYQYAIFGAADMFTLVGMLEFFYAESSAGMKALSTAISWCSLAFGYYLSSVVVEIVNKVSGGWLANNNLNRDKLENFYWLLAGLSVVNFGVYVMCASWYKYKNVEMIKKDDAST
modifications: ABC+PTR Transporter amino acid sequence (of the 12 identified gene products)
For B3, the “inhibition of yeast growth … vs control yeast” value (yeast cells [1]; FIG. 2) was “reduced inhibition of growth”, the “growth inhibition by CBD, time course of yeast growth vs empty vector yeast” value (yeast cells [1]; 12 hour period, FIGS. 1A-B) was “reduced growth inhibition” and the “net uptake of CBD into yeast cells compared to control (empty vector) yeast” value (yeast cells [3]) was “reduced net uptake of CBD”. For the same molecule, the “fluorescence (FDA viability) of transporter-expressing BY2 cells in the presence of CBD” value (tobacco BY-2 cells [2]; FIG. 6A bottom) was “strong decrease”, the “cell death in response to CBD of BY-2 cells expressing the transporter” value (tobacco BY-2 cells [2]; FIGS. 6A-B) was “increased cell death” and the “effect on the uptake of CBD in tobacco BY-2 cells” value (tobacco BY-2 cells [4]; 4 hour uptake, FIG. 5) was “strong effect”.
